Test results from article PMC13189263.

What was measured:
[1] = biological target: N6-I2 Ab (human); experiment: SPR
[2] = biological target: N6-I3 Ab (human); experiment: SPR

Question: Which results are given for BG505 MD39.3 SOSIP trimer?
Answer: Kd [1]: 5.7 nM; Kd [2]: 3 nM
